# Test results reported in paper PMC3413289 (Science signaling, 2012).
# Molecular target: the molecule itself
# Experiment: SEC
row,Protein,binding result
1,coiled-coil PlexinA1_(cyto) fusion with the 1-residue linker (other) VKQLEDKVEELLSKNAHLENEVARLKKLVGSRDADRTLKRLQLQMDNLESRVALECKEAFAELQTDIHELTSDLDGAGIPFLDYRTYAMRVLFPGIEDHPVLKEMEVQANVEKSLTLFGQLLTKKHFLLTFIRTLEAQRSFSMRDRGNVASLIMTALQGEMEYATGVLKQLLSDLIEKNLESKNHPKLLLRRTESVAEKMLTNWFTFLLYKFLKECAGEPLFMLYCAIKQQMEKGPIDAITGEARYSLSEDKLIRQQIDYKTLTLNCVNPEHENAPEVPVKGLNCDTVTQVKEKLLDAVYKGVPYSQRPKAGDMDLEWRQGRMARIILQDEDVTTKIDNDWKRLNTLAHYQVTDGSSVALVPKQTSAYNISNSSTFTKSLSRYESMLRTASSPDSLRSRTPMITPDLESGTKLWHLVKNHDHLDQREGDRGSKMVSEIYLTRLLATKGTLQKFVDDLFETIFSTAHRGSALPLAIKYMFDFLDEQADKHQIHDSDVRHTWKSNCLPLRFWVNVIKNPQFVFDIHKNSITDACLSVVAQTFMDSCSTSEHKLGKDSPSNKLLYAKDIPNYKSWVERYYADIAKMPAISDQDMSAYLAEQSRLHLSQFNSMSALHEIYSYIAKYKDEILVALEKDEQARRQRLRSKLEQVVDTMALSS,binds
2,coiled-coil PlexinA1_(cyto) fusion with the 7-residue linker (other) VKQLEDKVEELLSKNAHLENEVARLKKLVGSSGSSGSRDADRTLKRLQLQMDNLESRVALECKEAFAELQTDIHELTSDLDGAGIPFLDYRTYAMRVLFPGIEDHPVLKEMEVQANVEKSLTLFGQLLTKKHFLLTFIRTLEAQRSFSMRDRGNVASLIMTALQGEMEYATGVLKQLLSDLIEKNLESKNHPKLLLRRTESVAEKMLTNWFTFLLYKFLKECAGEPLFMLYCAIKQQMEKGPIDAITGEARYSLSEDKLIRQQIDYKTLTLNCVNPEHENAPEVPVKGLNCDTVTQVKEKLLDAVYKGVPYSQRPKAGDMDLEWRQGRMARIILQDEDVTTKIDNDWKRLNTLAHYQVTDGSSVALVPKQTSAYNISNSSTFTKSLSRYESMLRTASSPDSLRSRTPMITPDLESGTKLWHLVKNHDHLDQREGDRGSKMVSEIYLTRLLATKGTLQKFVDDLFETIFSTAHRGSALPLAIKYMFDFLDEQADKHQIHDSDVRHTWKSNCLPLRFWVNVIKNPQFVFDIHKNSITDACLSVVAQTFMDSCSTSEHKLGKDSPSNKLLYAKDIPNYKSWVERYYADIAKMPAISDQDMSAYLAEQSRLHLSQFNSMSALHEIYSYIAKYKDEILVALEKDEQARRQRLRSKLEQVVDTMALSS,binds
3,CC-L4-PlexinA1_(cyto) (other) VKQLEDKVEELLSKNAHLENEVARLKKLVGSSGSRDADRTLKRLQLQMDNLESRVALECKEAFAELQTDIHELTSDLDGAGIPFLDYRTYAMRVLFPGIEDHPVLKEMEVQANVEKSLTLFGQLLTKKHFLLTFIRTLEAQRSFSMRDRGNVASLIMTALQGEMEYATGVLKQLLSDLIEKNLESKNHPKLLLRRTESVAEKMLTNWFTFLLYKFLKECAGEPLFMLYCAIKQQMEKGPIDAITGEARYSLSEDKLIRQQIDYKTLTLNCVNPEHENAPEVPVKGLNCDTVTQVKEKLLDAVYKGVPYSQRPKAGDMDLEWRQGRMARIILQDEDVTTKIDNDWKRLNTLAHYQVTDGSSVALVPKQTSAYNISNSSTFTKSLSRYESMLRTASSPDSLRSRTPMITPDLESGTKLWHLVKNHDHLDQREGDRGSKMVSEIYLTRLLATKGTLQKFVDDLFETIFSTAHRGSALPLAIKYMFDFLDEQADKHQIHDSDVRHTWKSNCLPLRFWVNVIKNPQFVFDIHKNSITDACLSVVAQTFMDSCSTSEHKLGKDSPSNKLLYAKDIPNYKSWVERYYADIAKMPAISDQDMSAYLAEQSRLHLSQFNSMSALHEIYSYIAKYKDEILVALEKDEQARRQRLRSKLEQVVDTMALSS,binds
